We go through two molecules from patent US20050037969A1 (ARBOR VITA, published 2005).

Ends that are not written are not given here. * marks the point of attachment. Biotin = O=C1N[C@H]2[C@H](CS[C@H]2CCCCC(=O)*)N1

T12 sequence (Q2T9M1 other isoform, or with tags, fused parts or gaps limits assumed): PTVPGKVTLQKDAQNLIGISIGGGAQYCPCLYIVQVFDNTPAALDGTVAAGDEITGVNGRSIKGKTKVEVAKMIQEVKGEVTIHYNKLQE

One assay deals with T1, SP short PDZ-GST fusion protein (Homo sapiens (Human), UniProt O43464 350-435).
T1 construct: The label SP short is not explained in the excerpts
T1 sequence: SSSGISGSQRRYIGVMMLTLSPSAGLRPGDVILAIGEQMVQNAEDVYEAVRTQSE
In words: A/G assays.
In the case of Biotin-STNHSIGSTQSTPCSTSSMA (also called CD105 (endoglin)) [CD105 C-terminal peptide AA16L, biotinylated], the binding result is recorded as “no binding”.
Still for that read-out and setting: under Biotin-HKAEIHAQPSDKERLTSDA (also called CD49F (Aform, alpha6)) [CD49F C-terminal peptide AA12L, biotinylated] stands “no binding”.

A further assay deals with T2, GST-mouse syntenin fusion protein (Mus musculus, UniProt O08992 108-286).
T2 construct: also called Mus musculus Syntenin; not shown: glutathione S-transferase encoded by vector pGEX-3X (Pharmacia)
T2 chain: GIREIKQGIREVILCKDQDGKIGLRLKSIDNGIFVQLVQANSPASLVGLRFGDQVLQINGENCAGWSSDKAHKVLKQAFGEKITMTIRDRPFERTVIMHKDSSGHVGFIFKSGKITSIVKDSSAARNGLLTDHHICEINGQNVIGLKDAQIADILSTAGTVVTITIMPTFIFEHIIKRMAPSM
The assay is described as follows: A/G assays.
Take Biotin-STNHSIGSTQSTPCSTSSMA (also called CD105 (endoglin)) [CD105 C-terminal peptide AA16L, biotinylated]: the binding result is “no binding”.
As to Biotin-HKAEIHAQPSDKERLTSDA (also called CD49F (Aform, alpha6)) [CD49F C-terminal peptide AA12L, biotinylated], the binding result is given as “no binding”.

For the next assay, the target named is T3, GST-PTN-4 PDZ domain fusion protein (Homo sapiens (Human), UniProt P29074 517-605).
T3 construct: also called protein-tyrosine phosphatase meg1; not shown: glutathione S-transferase encoded by vector pGEX-3X (Pharmacia)
T3 sequence: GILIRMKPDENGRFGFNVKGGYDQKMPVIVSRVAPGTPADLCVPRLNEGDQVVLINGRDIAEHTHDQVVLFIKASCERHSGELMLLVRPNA
In words: A/G assays.
For the molecule Biotin-STNHSIGSTQSTPCSTSSMA (also called CD105 (endoglin)) [CD105 C-terminal peptide AA16L, biotinylated], the binding result is “no binding”.
With Biotin-HKAEIHAQPSDKERLTSDA (also called CD49F (Aform, alpha6)) [CD49F C-terminal peptide AA12L, biotinylated], the binding result was “no binding”.

For another assay, the target named is T4, K559 PDZ-GST fusion protein (Homo sapiens (Human), UniProt Q9Y6V0 4489-4593).
T4 construct: Order of GST and PDZ part and limits not seen in the excerpts
T4 sequence: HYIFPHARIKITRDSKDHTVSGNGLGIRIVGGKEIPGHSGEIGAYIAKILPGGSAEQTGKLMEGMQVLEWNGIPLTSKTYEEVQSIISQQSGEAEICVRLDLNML
In words: A/G assays.
As to Biotin-STNHSIGSTQSTPCSTSSMA (also called CD105 (endoglin)) [CD105 C-terminal peptide AA16L, biotinylated], the binding result is reported as “no binding”.
On the same count and under the same terms, under Biotin-HKAEIHAQPSDKERLTSDA (also called CD49F (Aform, alpha6)) [CD49F C-terminal peptide AA12L, biotinylated] stands “no binding”.

Another assay deals with T5, GST-TAX-IP2 PDZ domain fusion protein (human, UniProt O14908 129-216).
T5 construct: also called TAX-1P2; TAX2; not shown: glutathione S-transferase encoded by vector pGEX-3X (Pharmacia)
T5 chain: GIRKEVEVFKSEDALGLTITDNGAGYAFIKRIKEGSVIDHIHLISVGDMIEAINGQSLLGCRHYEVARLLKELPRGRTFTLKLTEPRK
In words: A/G assays.
As to Biotin-STNHSIGSTQSTPCSTSSMA (also called CD105 (endoglin)) [CD105 C-terminal peptide AA16L, biotinylated], the binding result was “no binding”.
The same measure, in the same setting: under Biotin-HKAEIHAQPSDKERLTSDA (also called CD49F (Aform, alpha6)) [CD49F C-terminal peptide AA12L, biotinylated] stands “no binding”.

Another assay deals with T6, NOS1 PDZ-GST fusion protein (Homo sapiens (Human), UniProt P29475 11-100).
T6 construct: Order of GST and PDZ part and limits not seen in the excerpts
T6 sequence (P29475 11-100 limits assumed): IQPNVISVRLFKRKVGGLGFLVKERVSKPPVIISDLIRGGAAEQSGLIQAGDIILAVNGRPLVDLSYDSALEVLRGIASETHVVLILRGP
In words: A/G assays.
Biotin-STNHSIGSTQSTPCSTSSMA (also called CD105 (endoglin)) [CD105 C-terminal peptide AA16L, biotinylated]: the binding result is “no binding”.
Still for that read-out and setting: to Biotin-HKAEIHAQPSDKERLTSDA (also called CD49F (Aform, alpha6)) [CD49F C-terminal peptide AA12L, biotinylated] belongs “no binding”.

A further assay deals with T7, TAX-IP33 PDZ-GST fusion protein (Homo sapiens (Human), UniProt O14910 103-193).
T7 construct: Order of GST and PDZ part and limits not seen in the excerpts
T7 sequence: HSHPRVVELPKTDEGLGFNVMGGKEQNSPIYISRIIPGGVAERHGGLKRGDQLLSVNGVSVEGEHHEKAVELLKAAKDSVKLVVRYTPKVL
In words: A/G assays.
As for Biotin-STNHSIGSTQSTPCSTSSMA (also called CD105 (endoglin)) [CD105 C-terminal peptide AA16L, biotinylated], the binding result is listed as “no binding”.
Still for that read-out and setting: under Biotin-HKAEIHAQPSDKERLTSDA (also called CD49F (Aform, alpha6)) [CD49F C-terminal peptide AA12L, biotinylated] stands “no binding”.

A further assay addresses T8, GST-TAX-IP43 PDZ domain fusion protein (human, UniProt Q13884 109-180).
T8 construct: also called TAX43; not shown: glutathione S-transferase encoded by vector pGEX-3X (Pharmacia)
T8 sequence: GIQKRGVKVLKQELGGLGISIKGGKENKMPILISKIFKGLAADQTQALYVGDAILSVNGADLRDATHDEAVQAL
The assay is described as follows: A/G assays.
As to Biotin-STNHSIGSTQSTPCSTSSMA (also called CD105 (endoglin)) [CD105 C-terminal peptide AA16L, biotinylated], the binding result is on record as “no binding”.
Still for that read-out and setting: to Biotin-HKAEIHAQPSDKERLTSDA (also called CD49F (Aform, alpha6)) [CD49F C-terminal peptide AA12L, biotinylated] belongs “no binding”.

In another assay the target is T9, GST-DVL1 PDZ domain fusion protein (human, UniProt O14640 247-339).
T9 construct: also called human dishevelled segment polarity protein homolog; not shown: glutathione S-transferase encoded by vector pGEX-3X (Pharmacia)
T9 sequence: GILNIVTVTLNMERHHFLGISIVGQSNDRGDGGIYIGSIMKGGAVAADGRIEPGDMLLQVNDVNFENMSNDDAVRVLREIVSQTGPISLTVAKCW
In words: A/G assays.
For the molecule Biotin-STNHSIGSTQSTPCSTSSMA (also called CD105 (endoglin)) [CD105 C-terminal peptide AA16L, biotinylated], the binding result is listed as “no binding”.
Still for that read-out and setting: to Biotin-HKAEIHAQPSDKERLTSDA (also called CD49F (Aform, alpha6)) [CD49F C-terminal peptide AA12L, biotinylated] belongs “no binding”.

For a further assay, the target named is T10, GST-PDZK1 fusion protein (PDZ domains 2-4) (Homo sapiens, UniProt Q5T2W1 134-457).
T10 construct: not shown: glutathione S-transferase encoded by vector pGEX-3X (Pharmacia)
T10 sequence: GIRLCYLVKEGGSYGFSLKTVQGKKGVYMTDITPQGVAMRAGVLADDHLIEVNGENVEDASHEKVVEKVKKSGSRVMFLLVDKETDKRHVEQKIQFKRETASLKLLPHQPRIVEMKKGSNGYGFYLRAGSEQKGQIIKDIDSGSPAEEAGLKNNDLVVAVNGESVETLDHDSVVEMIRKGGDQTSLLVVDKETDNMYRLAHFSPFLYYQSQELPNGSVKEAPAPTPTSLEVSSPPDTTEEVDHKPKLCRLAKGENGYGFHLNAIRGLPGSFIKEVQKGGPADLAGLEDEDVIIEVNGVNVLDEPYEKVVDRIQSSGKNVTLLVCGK
The assay is described as follows: A/G assays.
With Biotin-STNHSIGSTQSTPCSTSSMA (also called CD105 (endoglin)) [CD105 C-terminal peptide AA16L, biotinylated], the binding result is reported as “no binding”.
The same measure, in the same setting: to Biotin-HKAEIHAQPSDKERLTSDA (also called CD49F (Aform, alpha6)) [CD49F C-terminal peptide AA12L, biotinylated] belongs “no binding”.

The next assay concerns the target T11, GST-MPP1 PDZ domain fusion protein (Homo sapiens (Human), UniProt Q00013 67-152).
T11 construct: also called p55; 55 Kd erythrocyte membrane protein; not shown: glutathione S-transferase encoded by vector pGEX-3X (Pharmacia)
T11 sequence: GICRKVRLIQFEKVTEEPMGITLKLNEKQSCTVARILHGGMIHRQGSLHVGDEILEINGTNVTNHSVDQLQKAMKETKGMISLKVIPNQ
The assay is described as follows: A/G assays.
For the molecule Biotin-STNHSIGSTQSTPCSTSSMA (also called CD105 (endoglin)) [CD105 C-terminal peptide AA16L, biotinylated], the binding result is given as “no binding”.
Take Biotin-HKAEIHAQPSDKERLTSDA (also called CD49F (Aform, alpha6)) [CD49F C-terminal peptide AA12L, biotinylated]: the binding result is reported as “no binding”.

The next assay addresses T12, PICK1 PDZ-GST fusion protein (Bos taurus (Bovine), UniProt Q2T9M1 17-105).
T12 construct: Order of GST and PDZ part and limits not seen in the excerpts
The assay is described as follows: A/G assays.
Regarding Biotin-STNHSIGSTQSTPCSTSSMA (also called CD105 (endoglin)) [CD105 C-terminal peptide AA16L, biotinylated], the binding result is reported as “no binding”.
Same read-out and setting: under Biotin-HKAEIHAQPSDKERLTSDA (also called CD49F (Aform, alpha6)) [CD49F C-terminal peptide AA12L, biotinylated] stands “no binding”.

The next assay has as its target T13, GST-prIL16 fusion protein (PDZ domains 1-2) (Homo sapiens (Human), UniProt Q14005 1111-1324).
T13 construct: also called putative interleukin 16 precursor; not shown: glutathione S-transferase encoded by vector pGEX-3X (Pharmacia)
T13 sequence: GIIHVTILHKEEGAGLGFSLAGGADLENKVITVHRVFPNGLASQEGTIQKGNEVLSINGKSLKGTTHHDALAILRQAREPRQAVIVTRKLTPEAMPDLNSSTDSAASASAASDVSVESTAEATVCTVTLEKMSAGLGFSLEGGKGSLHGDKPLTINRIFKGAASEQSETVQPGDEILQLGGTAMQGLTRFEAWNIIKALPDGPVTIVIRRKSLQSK
In words: A/G assays.
In the case of Biotin-STNHSIGSTQSTPCSTSSMA (also called CD105 (endoglin)) [CD105 C-terminal peptide AA16L, biotinylated], the binding result is on record as “no binding”.
Biotin-HKAEIHAQPSDKERLTSDA (also called CD49F (Aform, alpha6)) [CD49F C-terminal peptide AA12L, biotinylated]: the binding result is recorded as “no binding”.

In a further assay the target is T14, K316 PDZ-GST fusion protein (Homo sapiens (Human), UniProt Q14CM0 72-159).
T14 construct: Order of GST and PDZ part and limits not seen in the excerpts
T14 sequence (Q14CM0 72-159 limits assumed): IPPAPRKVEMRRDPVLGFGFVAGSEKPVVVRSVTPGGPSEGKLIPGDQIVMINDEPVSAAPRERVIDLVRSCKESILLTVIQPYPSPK
The assay is described as follows: A/G assays.
In the case of Biotin-STNHSIGSTQSTPCSTSSMA (also called CD105 (endoglin)) [CD105 C-terminal peptide AA16L, biotinylated], the binding result is on record as “no binding”.
Still for that read-out and setting: to Biotin-HKAEIHAQPSDKERLTSDA (also called CD49F (Aform, alpha6)) [CD49F C-terminal peptide AA12L, biotinylated] belongs “no binding”.

The next assay deals with T15, GST-TIAM1 PDZ domain fusion protein (Homo sapiens (Human), UniProt Q13009 845-931).
T15 construct: also called TLAM1; T-lymphoma invasion and metastasis inducing protein 1; not shown: glutathione S-transferase encoded by vector pGEX-3X (Pharmacia)
T15 sequence (Q13009 other isoform, or with tags, fused parts or gaps): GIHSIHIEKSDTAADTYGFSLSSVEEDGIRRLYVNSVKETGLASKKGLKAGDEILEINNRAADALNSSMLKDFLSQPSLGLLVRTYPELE
In words: A/G assays.
As to Biotin-STNHSIGSTQSTPCSTSSMA (also called CD105 (endoglin)) [CD105 C-terminal peptide AA16L, biotinylated], the binding result is given as “no binding”.
As for Biotin-HKAEIHAQPSDKERLTSDA (also called CD49F (Aform, alpha6)) [CD49F C-terminal peptide AA12L, biotinylated], the binding result was “no binding”.
